Article PMC9288967

Columns and labels:
[1] = target: spike RBD of the Alpha variant (B.1.1.7) (SARS-CoV-2) (UniProt P0DTC2); experiment: cross-linking
[2] = target: spike RBD of the Delta variant (B.1.617.2) (SARS-CoV-2) (UniProt P0DTC2); experiment: cross-linking

mNb6(108FFY) (VHH)
kobs (apparent first-order constant of cross-linking) [1]: 0.086 h⁻¹ | kobs (apparent first-order constant of cross-linking) [2]: 0.156 h⁻¹
